± gives the uncertainty stated by the source.
B1: Far upstream element-binding protein 1, residues 184 to 257; numbered along this chain, Q96AE4 (parent)
chain: GNAVQEIMIPASKAGLVIGKGGETIKQLQERAGVKMVMIQDGPQNTGADKPLRITGDPYKVQQAKEMVLELIRD

Variants of: B1
Assay: abundance fitness (aPCA) (normalised: wild type 0, dead -1); higher = more abundant; growth selection in yeast, the domain comes from the species named
Settings: Homo sapiens

Abundance fitness of substitutions, site by site:
P43: N -0.123 ± 0.063 | G 0.05 ± 0.03 | W -0.022 ± 0.042 | K 0.064 ± 0.048 | R -0.012 ± 0.03 | A 0.023 ± 0.039 | C -0.049 ± 0.051 | M -0.016 ± 0.044 | Y -0.003 ± 0.054 | Q -0.057 ± 0.045 | E -0.01 ± 0.04 | H 0.003 ± 0.063 | D -0.055 ± 0.05 | I -0.011 ± 0.067 | F -0.079 ± 0.054 | L -0.053 ± 0.036 | T -0.119 ± 0.044 | S 0.04 ± 0.038
K35: R -0.007 ± 0.027 | G -0.071 ± 0.027 | P -0.472 ± 0.042 | Q 0.015 ± 0.039 | L -0.118 ± 0.03 | T -0.093 ± 0.038 | H 0.003 ± 0.058 | M -0.154 ± 0.039 | Y -0.248 ± 0.055 | I -0.158 ± 0.055 | E 0.003 ± 0.035 | F -0.261 ± 0.053 | C -0.11 ± 0.043 | V -0.124 ± 0.03 | W -0.308 ± 0.036 | S -0.116 ± 0.032 | N 0.023 ± 0.052 | D -0.07 ± 0.046
Q40: Y -0.049 ± 0.061 | D -0.008 ± 0.05 | E -0.067 ± 0.037 | F -0.027 ± 0.052 | W -0.086 ± 0.039 | S -0.042 ± 0.032 | K -0.025 ± 0.041 | T -0.059 ± 0.036 | L -0.076 ± 0.031 | P -0.052 ± 0.035 | V -0.052 ± 0.032 | H -0.146 ± 0.057 | R -0.053 ± 0.028 | I -0.147 ± 0.065 | M -0.085 ± 0.041 | C -0.024 ± 0.049
I39: M 0.014 ± 0.04 | V 0.006 ± 0.031 | Y -0.08 ± 0.05 | W -0.096 ± 0.036 | C -0.051 ± 0.042 | H -0.095 ± 0.05 | S -0.02 ± 0.03 | P -0.061 ± 0.035 | D -0.105 ± 0.045 | G -0.028 ± 0.027 | Q -0.032 ± 0.04 | N 0.014 ± 0.051 | F 0.035 ± 0.061 | T -0.088 ± 0.036 | E -0.001 ± 0.036 | L -0.008 ± 0.032 | R 0.006 ± 0.027 | K 0 ± 0.041
E30: M 0.025 ± 0.041 | L -0.026 ± 0.031 | Y -0.114 ± 0.06 | D -0.024 ± 0.046 | K -0.01 ± 0.042 | S -0.007 ± 0.032 | V -0.029 ± 0.031 | A -0.039 ± 0.035 | H -0.016 ± 0.048 | Q -0.035 ± 0.04 | T -0.071 ± 0.038 | I -0.03 ± 0.054 | R 0.01 ± 0.027 | G -0.122 ± 0.028
M36: I -0.053 ± 0.047 | Y -0.786 ± 0.075 | A -0.194 ± 0.032 | G -0.67 ± 0.033 | D -0.709 ± 0.065 | H -0.81 ± 0.093 | K -0.78 ± 0.06 | W -1 ± 0.052 | P -0.789 ± 0.049 | V -0.231 ± 0.032 | R -0.747 ± 0.033 | S -0.556 ± 0.035 | T -0.585 ± 0.042 | N -0.712 ± 0.077 | C -0.239 ± 0.042 | E -0.582 ± 0.044 | Q -0.656 ± 0.05
G47: P -0.108 ± 0.037 | K 0.061 ± 0.041 | A -0.02 ± 0.031 | E -0.038 ± 0.036 | M -0.043 ± 0.042 | N -0.034 ± 0.052 | F -0.014 ± 0.053 | H -0.167 ± 0.06 | L -0.069 ± 0.031 | I -0.168 ± 0.057 | D -0.043 ± 0.041
Q44: E -0.06 ± 0.034 | D 0.004 ± 0.047 | H 0.042 ± 0.052 | N 0.02 ± 0.048 | M -0.007 ± 0.04 | A -0.008 ± 0.032 | Y -0.002 ± 0.06 | P 0.006 ± 0.037 | R -0.048 ± 0.028 | F -0.082 ± 0.053 | K 0.038 ± 0.036 | S -0.04 ± 0.032 | G 0.007 ± 0.027 | C -0.083 ± 0.043 | L -0.055 ± 0.032 | I -0.046 ± 0.056 | W -0.088 ± 0.035 | V -0.067 ± 0.03
Q29: Y -0.67 ± 0.072 | D -0.602 ± 0.06 | A -0.018 ± 0.032 | L -0.45 ± 0.033 | T -0.247 ± 0.038 | C -0.2 ± 0.045 | E -0.026 ± 0.034 | M -0.044 ± 0.042 | R -0.137 ± 0.027 | P -0.748 ± 0.044 | S -0.029 ± 0.031 | H -0.557 ± 0.062 | K -0.189 ± 0.04 | G -0.142 ± 0.029 | W -0.345 ± 0.036 | V -0.351 ± 0.037 | I -0.342 ± 0.06
D41: C -0.034 ± 0.047 | A -0.077 ± 0.031 | L -0.095 ± 0.031 | N 0.047 ± 0.049 | M -0.089 ± 0.045 | G -0.009 ± 0.026 | V -0.023 ± 0.031 | H -0.048 ± 0.05 | F -0.189 ± 0.055 | K -0.007 ± 0.04 | Q -0.006 ± 0.041 | R -0.052 ± 0.028 | T -0.052 ± 0.036 | Y -0.139 ± 0.054 | E 0.009 ± 0.035
A32: W -0.057 ± 0.037 | I -0.034 ± 0.052 | D -0.412 ± 0.055 | L -0.017 ± 0.031 | C 0.006 ± 0.043 | E -0.201 ± 0.038 | N 0.029 ± 0.051 | G -0.075 ± 0.03 | F 0.054 ± 0.046 | M -0.009 ± 0.042 | K -0.171 ± 0.046 | H 0.031 ± 0.052 | R -0.367 ± 0.031 | V -0.062 ± 0.033 | T 0.02 ± 0.035 | P -0.706 ± 0.046 | S -0.013 ± 0.032 | Y -0.016 ± 0.051 | Q -0.077 ± 0.04
R31: T -0.042 ± 0.035 | M -0.096 ± 0.039 | K 0.016 ± 0.039 | L -0.125 ± 0.031 | H 0.032 ± 0.054 | V -0.113 ± 0.031 | S -0.008 ± 0.03 | Q 0.017 ± 0.038 | W -0.221 ± 0.037 | D -0.028 ± 0.04 | E 0 ± 0.033 | I -0.12 ± 0.058 | G -0.106 ± 0.028 | A -0.036 ± 0.032 | Y -0.168 ± 0.056 | F -0.155 ± 0.05 | P -0.484 ± 0.044 | C -0.084 ± 0.044
N45: M -0.055 ± 0.039 | H -0.022 ± 0.052 | W -0.105 ± 0.042 | I -0.029 ± 0.046 | K -0.008 ± 0.031 | V -0.057 ± 0.033 | G -0.008 ± 0.026 | Y -0.091 ± 0.044 | A -0.019 ± 0.034 | E -0.024 ± 0.029 | S -0.057 ± 0.031 | D 0.013 ± 0.038 | P -0.055 ± 0.04 | L -0.128 ± 0.033 | F 0.023 ± 0.05 | R -0.022 ± 0.029
V37: R -0.019 ± 0.026 | I -0.049 ± 0.048 | P -0.773 ± 0.05 | N -0.065 ± 0.05 | K 0.039 ± 0.039 | E -0.006 ± 0.034 | A -0.054 ± 0.032 | T -0.026 ± 0.037 | M -0.07 ± 0.042 | W -0.059 ± 0.033 | Q -0.025 ± 0.038 | S -0.048 ± 0.031 | H -0.178 ± 0.058 | G -0.172 ± 0.026 | C 0.009 ± 0.04
T46: Q -0.022 ± 0.037 | K -0.066 ± 0.033 | I -0.062 ± 0.046 | G -0.024 ± 0.028 | R -0.046 ± 0.027 | V -0.004 ± 0.032 | N -0.074 ± 0.05 | A -0.073 ± 0.033 | S -0.04 ± 0.032 | F -0.085 ± 0.052 | L -0.038 ± 0.03 | W -0.136 ± 0.035 | C -0.058 ± 0.049 | H -0.055 ± 0.055 | M -0.028 ± 0.038 | Y -0.115 ± 0.055 | P -0.012 ± 0.034
M38: F 0.037 ± 0.052 | S -0.205 ± 0.034 | P -0.287 ± 0.04 | H -0.13 ± 0.053 | G -0.324 ± 0.028 | E -0.163 ± 0.039 | D -0.392 ± 0.055 | W -0.032 ± 0.034 | L 0.035 ± 0.031 | T -0.21 ± 0.035 | V -0.007 ± 0.031 | C -0.166 ± 0.044 | Y -0.094 ± 0.057 | I -0.036 ± 0.048 | A -0.183 ± 0.032 | R -0.444 ± 0.029
G33: I -1.12 ± 0.22 | M -0.137 ± 0.041 | S -0.123 ± 0.032 | W -0.807 ± 0.046 | T -0.29 ± 0.039 | K -0.097 ± 0.036 | D -0.083 ± 0.044 | V -0.596 ± 0.035 | H -0.1 ± 0.058 | Y -0.534 ± 0.063 | R -0.119 ± 0.027 | Q -0.057 ± 0.042 | L -0.354 ± 0.032 | F -0.43 ± 0.052 | P -0.801 ± 0.058 | C -0.125 ± 0.042 | N -0.063 ± 0.046 | E -0.081 ± 0.034 | A -0.171 ± 0.032
L28: W -0.284 ± 0.035 | D -0.692 ± 0.061 | Y -0.338 ± 0.055 | R -0.78 ± 0.036 | G -0.825 ± 0.035 | S -0.639 ± 0.041 | M 0.026 ± 0.038 | N -0.415 ± 0.057 | T -0.315 ± 0.041 | V -0.155 ± 0.032 | Q -0.612 ± 0.055 | E -0.63 ± 0.046 | F -0.225 ± 0.062 | P -0.77 ± 0.051 | K -0.791 ± 0.059 | I -0.026 ± 0.058
G42: H -0.082 ± 0.048 | I -0.052 ± 0.054 | D -0.069 ± 0.046 | P -0.059 ± 0.035 | K 0.049 ± 0.04 | C -0.037 ± 0.04 | M -0.084 ± 0.04 | E 0.007 ± 0.033 | R -0.022 ± 0.026 | A -0.028 ± 0.032 | W -0.33 ± 0.037 | S 0.009 ± 0.031 | L -0.158 ± 0.032 | Q -0.029 ± 0.042 | F -0.078 ± 0.056 | Y 0.055 ± 0.061 | N -0.059 ± 0.054
V34: W -1.35 ± 0.086 | L -0.567 ± 0.036 | C -0.086 ± 0.043 | Q -0.833 ± 0.063 | K -0.946 ± 0.074 | F -1.35 ± 0.15 | T -0.232 ± 0.04 | I -0.432 ± 0.061 | E -0.753 ± 0.046 | N -0.68 ± 0.087 | A -0.153 ± 0.033 | Y -1.11 ± 0.12 | G -0.767 ± 0.033 | H -0.87 ± 0.096 | R -0.974 ± 0.04 | D -0.807 ± 0.067 | P -0.918 ± 0.065 | S -0.639 ± 0.041 | M -0.808 ± 0.059

— the Human Domainome abundance scans (Beltran et al. 2025)
